Test results published in patent publication US20220119509A1 (ARGENX, published 2022).

T1: huC2b with mouse S2 (huC2b-mS2) (mouse, UniProt P06681 21-243 (human entry))
T1 chain: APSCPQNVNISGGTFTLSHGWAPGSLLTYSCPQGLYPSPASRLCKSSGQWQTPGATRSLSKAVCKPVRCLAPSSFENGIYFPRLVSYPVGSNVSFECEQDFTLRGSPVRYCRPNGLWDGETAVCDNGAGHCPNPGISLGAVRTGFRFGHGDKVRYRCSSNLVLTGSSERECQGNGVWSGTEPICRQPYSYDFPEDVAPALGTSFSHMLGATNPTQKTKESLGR

T2: mouse C2 (mouse, UniProt P21180 19-760, limits assumed)
T2 sequence (looked up): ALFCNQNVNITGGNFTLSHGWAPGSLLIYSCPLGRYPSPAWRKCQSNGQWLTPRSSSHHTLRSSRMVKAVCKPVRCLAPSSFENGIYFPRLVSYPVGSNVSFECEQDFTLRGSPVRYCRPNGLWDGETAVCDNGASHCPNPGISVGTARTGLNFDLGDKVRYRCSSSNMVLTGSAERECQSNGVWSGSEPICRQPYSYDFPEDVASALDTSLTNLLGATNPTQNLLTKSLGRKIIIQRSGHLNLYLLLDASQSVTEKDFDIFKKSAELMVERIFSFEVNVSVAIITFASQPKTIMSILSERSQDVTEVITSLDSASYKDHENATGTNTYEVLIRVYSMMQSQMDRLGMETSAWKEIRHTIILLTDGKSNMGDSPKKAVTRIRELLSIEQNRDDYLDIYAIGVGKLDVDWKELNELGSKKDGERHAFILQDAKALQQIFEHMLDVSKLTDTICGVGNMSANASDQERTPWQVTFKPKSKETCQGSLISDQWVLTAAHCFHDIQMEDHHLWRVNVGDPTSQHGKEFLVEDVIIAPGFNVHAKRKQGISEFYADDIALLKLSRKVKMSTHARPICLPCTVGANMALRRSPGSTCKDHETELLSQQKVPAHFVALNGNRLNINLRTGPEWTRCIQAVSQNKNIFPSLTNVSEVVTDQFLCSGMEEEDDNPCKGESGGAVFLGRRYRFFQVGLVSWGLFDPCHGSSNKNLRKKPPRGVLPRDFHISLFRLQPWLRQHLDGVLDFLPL

T3: wild type C2 with C-terminal FLAG tag (human, UniProt P06681 21-752)
T3 construct: Secreted into the supernatant of transfected HEK293T cells; not shown: C-terminal FLAG tag
T3 sequence: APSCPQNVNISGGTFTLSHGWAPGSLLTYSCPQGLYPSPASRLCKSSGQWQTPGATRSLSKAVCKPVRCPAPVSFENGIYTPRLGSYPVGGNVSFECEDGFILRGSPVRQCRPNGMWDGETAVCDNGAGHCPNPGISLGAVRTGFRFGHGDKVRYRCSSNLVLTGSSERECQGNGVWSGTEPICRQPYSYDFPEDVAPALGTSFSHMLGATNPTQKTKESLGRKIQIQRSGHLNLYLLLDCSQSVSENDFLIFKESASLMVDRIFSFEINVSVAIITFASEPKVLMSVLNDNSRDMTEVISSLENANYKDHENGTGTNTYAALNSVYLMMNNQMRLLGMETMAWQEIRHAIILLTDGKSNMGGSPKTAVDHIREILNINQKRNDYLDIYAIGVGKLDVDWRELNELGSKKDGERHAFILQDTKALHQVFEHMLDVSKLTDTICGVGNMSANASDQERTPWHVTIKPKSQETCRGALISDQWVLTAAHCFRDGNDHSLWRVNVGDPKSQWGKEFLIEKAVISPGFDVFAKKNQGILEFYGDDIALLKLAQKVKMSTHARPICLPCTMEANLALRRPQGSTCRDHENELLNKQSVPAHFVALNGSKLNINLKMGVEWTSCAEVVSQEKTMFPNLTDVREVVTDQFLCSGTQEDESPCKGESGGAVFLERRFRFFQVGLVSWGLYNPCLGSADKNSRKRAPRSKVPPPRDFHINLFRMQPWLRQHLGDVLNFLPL

T4: human C2b fragment (huC2b) (human, UniProt P06681 21-243)
T4 construct: Supernatant of transfected HEK293 cells; not shown: FLAG tag (the construct is detected with anti-FLAG)
T4 sequence: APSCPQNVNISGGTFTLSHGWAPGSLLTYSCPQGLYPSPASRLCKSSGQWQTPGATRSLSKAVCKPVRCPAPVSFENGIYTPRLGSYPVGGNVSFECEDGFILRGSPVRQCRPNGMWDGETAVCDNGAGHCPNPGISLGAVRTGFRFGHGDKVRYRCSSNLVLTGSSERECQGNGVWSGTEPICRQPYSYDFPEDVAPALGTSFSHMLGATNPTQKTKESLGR

T5: human complement factor C2 (human, UniProt P06681 21-752)
T5 construct: also called human C2; recombinant human C2
T5 sequence: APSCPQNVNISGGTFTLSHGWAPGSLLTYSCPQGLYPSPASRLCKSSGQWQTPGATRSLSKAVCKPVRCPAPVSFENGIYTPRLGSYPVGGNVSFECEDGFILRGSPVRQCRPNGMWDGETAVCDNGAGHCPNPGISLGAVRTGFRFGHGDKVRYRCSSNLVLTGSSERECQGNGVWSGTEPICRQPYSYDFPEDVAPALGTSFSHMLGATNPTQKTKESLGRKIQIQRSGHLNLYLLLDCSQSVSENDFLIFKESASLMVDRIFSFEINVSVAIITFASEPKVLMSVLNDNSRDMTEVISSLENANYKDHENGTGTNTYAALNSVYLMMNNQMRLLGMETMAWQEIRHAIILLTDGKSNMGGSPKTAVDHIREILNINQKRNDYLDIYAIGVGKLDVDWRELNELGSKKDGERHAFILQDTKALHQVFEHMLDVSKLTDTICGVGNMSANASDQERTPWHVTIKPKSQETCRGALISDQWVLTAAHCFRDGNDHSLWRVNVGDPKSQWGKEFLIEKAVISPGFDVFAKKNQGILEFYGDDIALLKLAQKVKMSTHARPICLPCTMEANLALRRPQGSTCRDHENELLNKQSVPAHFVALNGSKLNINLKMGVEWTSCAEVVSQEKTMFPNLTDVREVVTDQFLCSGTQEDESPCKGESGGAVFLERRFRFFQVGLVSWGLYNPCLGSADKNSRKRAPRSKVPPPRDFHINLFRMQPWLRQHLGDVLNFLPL


Tests used:
[1] = target: T1, huC2b with mouse S2 (huC2b-mS2); experiment: sandwich ELISA: coated anti-C2-5F2.4, HEK293 supernatant, detection with anti-FLAG
[2] = target: T2, mouse C2; experiment: not described
[3] = target: T3, wild type C2 with C-terminal FLAG tag; experiment: sandwich ELISA: coated anti-C2-5F2.4, HEK293 supernatant diluted 20 times, detection with anti-FLAG
Description: FIG. 12 depicts results obtained with a domain swap ELISA performed with anti-C2-5F2.4. Anti-C2-5F2.4 mAb (human IgG4 S241P VH4/VL3 LC-13/03-163A Bioceros) was used for coating, plates were incubated with 20 times diluted supernatant of HEK293 transfectants, and binding was detected by an anti-FLAG Ab. Representative results from two independent experiments with similar outcome.
Next, the recognition of the swap mutants by the anti-C2-5F2.4 antibody was investigated. To this effect, microplates (Maxisorp, NUNC, Cat #439454) were coated overnight with 2 μg/mL anti-C2-5F2.4 in 100 μL PBS. Plates were washed 4 times with PBS with 0.05% Tween-20 and blocked with 200 μL PBS with 0.1% Tween-20 with 1% bovine serum albumin (BSA) (PBST-BSA) for 1 hour at RT. After washing, 100 μL culture supernatant containing mutants were added 20× diluted in PBST-BSA and incubated for 2 hours at RT with agitation. After washing, as detection antibody 1 μg/mL biotinylated anti-FLAG (clone M2, Sigma-Aldrich) was added in PBST-BSA for 1 hour at RT. The plate was washed and 1 μg/mL streptavidin-POD conjugate (Roche, Cat #11089153001) was added and incubated in the dark for 30 minutes. […] Absorbance was measured at 450 nm on a microplate reader (BioRad, iMark Microplate reader).

[4] = target: T4, human C2b fragment (huC2b); experiment: as above
[5] = target: T5, human complement factor C2; experiment: SPR (Biacore), C2 coated on the chip, Fab in solution, 1:1 model; C2 on the chip, Fab in solution

| binding result [1] | binding result [2] | binding result [3] | binding result [4] | Kd [5] | Binder |
| --- | --- | --- | --- | --- | --- |
| no binding | no binding | binds | binds |  | anti-C2-5F2.4 mAb (human IgG4 S241P VH4/VL3 LC-13/03-163A Bioceros) (antibody, V domains shown, Human IgG4 S241P; also called humanized 5F2.4) VH: EVQLVQSGAEVKKPGASVKVSCKASGYTFTDYNMDWVRQATGQGLEWIGDINPNYESTGYNQKFKGRATMTVNKSISTAYMELSSLRSEDTAVYYCAREDDHDAFAYWGQGTLVTVSS VL: DNVLTQSPDSLAVSLGERATISCRASKSVRTSGYNYMHWYQQKPGQPPKLLIYLASNLKSGVPDRFSGSGSGTDFTLTISSLQAEDAATYYCQHSRELPYTFGQGTKLEIK |
|  |  |  |  | ~0.3 nM | Fab of ARGX-117 (Fab, V domains shown) VH: EVQLVQSGAEVKKPGASVKVSCKASGYTFTDYNMDWVRQATGQGLEWIGDINPNYESTGYNQKFKGRATMTVDKSISTAYMELSSLRSEDTAVYYCAREDDHDAFAYWGQGTLVTVSS VL: DNVLTQSPDSLAVSLGERATISCRASKSVRTSGYNYMHWYQQKPGQPPKLLIYLASNLKSGVPDRFSGSGSGTDFTLTISSLQAEDAATYYCQHSRELPYTFGQGTKLEIK |
